Assay: yeast display, Sf9 membrane polyspecificity reagent, FACS + sequencing; frameworks hold sequencing errors
Summary of the method: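 Sorting gates, low and high (top ~1%), were placed on anti-HA fluorescence to track expression and on streptavidin fluorescence to track reagent binding. A clone's polyreactivity label is taken from the gate it came out of. The reagent was 10% biotinylated, detergent-solubilized Sf9 membrane, applied for 1 hour at 4 °C to galactose-induced yeast display cells.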

Sequence	polyreactivity (PSR sort gate)
QVQLVESGGGLVQAGGSLRLSCAASGSTFTVNDMGWYRQAPGKERELVAAITQRDGRTFYADSVKGRFTISRDNAKNTVYLQINSLKPEDTGVYYCAADYGWYTYGDYDYWGQGTQVTVSS	low polyreactivity
QVQLVETGGGLVQAGGTLRLSCAASGSTFNAYAKGWYIQAPGKERELVAVISSSGGRTYYADSEKGRFTISRDNAKNTVYLQLNSLKPEDTAVYYCNADVKYLYNHWGQGTQVTVSS	high polyreactivity
QVQLVDSGGGLVQAGGSLRLSCADSGFTFSWNVMGRYRQAPGKEREYVAAISTSYGGRYYADSVKGRFTISRDNAKNTVDLQMNSLKPEDTAVYYCNDDIVGFQWGYDYWGQGTQVTVSA	low polyreactivity
QVQLVESGGGLVQAGGSLRLSCAASGITFGRNTMGWSRQAPGKERELVAAIDSGANTYADSVKGRFTISSDNAKNTVYLQMISLKPEDSAVYYCAVDGGEFSSYGYWGQGTQVTVSW	low polyreactivity
QVQLVESGGGLVQAGGSLRLSCAAYGRIFYYNAMGWFRQAPGKERELVASIDNGGSTNYADSVKGRFTISRDNAKNTVYLQMNSLKPEDTAVYYCNVDLYYEVSHVFLYEYDYWGQGTQVTVSS	low polyreactivity
QVQLVESGGGLVQAGGSLRLSCAASGRTFSRYAMGWYRQAPGKERELVAAITWSGGDTYYADSVKGRFTISRDNAKNTVYLQMNSLKPEDTAVYYCAAEWGTVGYIRYYAIWSEYDYWGQGTQVTVSS	low polyreactivity
QVQLVESGGGLVQAGGSLRLSCAASGSIFRKYAMGWYRQATGKERELVAVITTDGSTNYADSVKGRFTISRDNAKNTVYLQMNSLKPEDTAVYYCNAVRSSIGTDNDYWGQGTQVTVSS	low polyreactivity
QVQLVESGGGIVQAGGSLRLSCAPSGFIFRVYTMGWYRQAPGKERELVAAISYRGGRTYYADSVKGRFTISRDNAKNSVYLQMNILKPEDTAVYYCAAERVNREFDYWGQGTLVTVSS	high polyreactivity
QVQLVESGGGLVQAGGSLRLSCDASGSTFASYAMGWYRQAPGKERELVAAIRWSGGTTYYADSVKGRFTISRDNAKNTVYLLMNSLKTEDTAVYYCNADRYYLYYYWGQGTQVTVSS	low polyreactivity
QVQLVESGGGLVQAGGSLRLSCAASGRTFYNYAMGWYRQAHGKERELVAAIDWGSDSTYYADYVKGRFTISRDNANNTVYLQMNRLKPEDTAVYYCAAYLVSVNSRTYDYWGQGTQVTVSS	low polyreactivity
QVQLVESGGGLVQAGGSLRLSCAASGRNFYVYAMGWYRQAPGKERELVATISRGGSTTYADSVKGRFTISRDNAKNTVYLQMNSLKPEDTAVYYCATELLGGRRTVAYYWGQGTQVTVSS	low polyreactivity
QVQLVESGGGLVQAGGSLRLSCAASGHIFFYYTMGWYRQAPGKERELVAGITIGGSTNYADSVKGRFTISRDNAKNTVYLQMNSLKPEDSAVYYCNVVKYVYIYSYWEYYYWGQGTQVTVSS	low polyreactivity
QVQLVESGGGLVQAGSSLRLSCAASGSTLRTNAMGWYRQAPGKEREFVADISKRGGRTYYADSVKGRFTISRDNAKNTVYLQMNSLKPEDTAVYYCAKLVSLAGRIYGYWGQGTQVTVSS	high polyreactivity
QVQLVESGGGLVQAGGSLRLSSAASGRILYRYAMGWYRQAPGKESELVAAIYRSGGDTYYADSVKGRFTITRDNAKNTVYLQMNSLIPEDTAVYYCAASFEGSGYRYDYWGQGSQVTVSS	low polyreactivity
QFQLVESGGGLVQAGGSLRLSCAASRFYTMGWSRQAPGKERELVAAISWSGGDTYYADSVKGRFTISRDNAKNTVYLQMTSLKPEDTAVYYCAKKTIGSYVHEPYYYWGHGTQVTVSS	low polyreactivity
QVQLVESGGGLVQAGGSLRLSCAASGSIFVGNAMGWYRQAPGKERELVAAISRGGGSTYYADSVKGRFTISRDNAKNTVYLQMNSLKPEDTAVYYCAAVKYYYGSAYDYWGQGTQVTVSS	high polyreactivity
QVQLVESGGGLVQAGGSLRLRCAASGRTFGRYAMGWYRQAPGKERELVAAISTSGGSTFYADSVKGRITISRDNAKNTVYLLMNSLKPEDTAVYYCAADYRRFWGRYGYWGQGTQVTVSS	high polyreactivity
QVQLVDSGGGLVQAGGSLRLSCAASGITIEYNDMGWYRQAPGTERELVAAISLSSGSTYYADSVKGRFTISRDNAKNTVYLQMNSLKPEDTAVYYCNADTIIYEGGYWGQGTQVTVSS	low polyreactivity
QVQLVESGGGLVQAGGRLRLSCAASGITFRWYAMGWYRQAPGKERELVAAITTSGDSTYYADSVKGRFTISRDNAKNTVYLQMNSLKPEDTAVNYCAAKYQSLRTYGYGFDYWGQGTQVTVSS	high polyreactivity
QVQLVESGGGLVQAGGSLRLSCAASGNIFADYAMGWYRQAPGKERELVAAISRGGITSYADSVKGRFTISRDNAKNTVYLQMNSLKPEDTAVYYCATDRYDVYDSLGFGYWGQGTQVTVSS	low polyreactivity
QVQLVESGGGLVQAGGSLRLSCAASGFTFGRNAMGWYRQAPGKERELVAAISRGGSTYYADSVKGRFTISRDNAKNTVYLQMNSLKPEDTAVYYCAAETFLKPQYFKKFGYWGQGTQVTVSS	high polyreactivity
QVQLEESGGGLVQAGGSLRLSCAASGSIFFSYAMGWYRQAPGKERELVAAISSGGSTYYADSVKGRFTISRDNAKNTVYLQMNSLKPEDTAVYYCAARGYRLVPVDFYYWGQGTQVTVSS	low polyreactivity

Sequence	polyreactivity (PSR sort gate)
QVQLVESGGGLVQAGGSLRLSCAASGRIFPEYAMGWYRQAPGKERELVAAITSSGRTYYADSVKGRFTISRDNAKNTVYLQMNSLKPEDTAVYYCAASFRRYYRWDYGFWGQGTQVTVSS	high polyreactivity
QVQLVESGGGLVQAGGSLRLSCAASGSTFYAYAMGWYRPAPGKERELVAAISSDGTNYADSVKGRFTISRDNAKNTVYLQMNSLKPEDTAVYYCAADLLLYSSQDNDYWGQGTQVTVSS	low polyreactivity
QVQLVESGGGLVQAGGSLRLSCAASGSTFSGYDMGWYRQAPGKERELVAAISKSGGRTYYADSVKGRFTISRDNAKNTVYLQMKSLKPEDTAVYYCNTDSPYDTYYFLWWREDYYWGQGTQVTVSS	low polyreactivity
QVQLVESGGGLVQAGGSLRLSCAASGSIFVGYAMGWYRQAPGKERELVARISSDGDTYYADSVKGRFTISRDNAKNTVYLQMNSLKPEDTAVYYCNADLYGGGDKSVISGLNGEYEYWGQGTQVTVSS	low polyreactivity
QVQLVESGGGLVQAGGSLRLICAASGRIFGSYVMGWYRQAPGKERELVAAISFSGDTTYYADSVKGRFTISRDNAKNTVYLQMNSLKPDDTAVYYCAAEFPQGYYAFKYDYWGQGTQVTVSS	high polyreactivity
QVQLVESGGGLVQAGGSLRLSCAASGFTFDQYTMGWYRQAPGKERELVAAISSSGGSTYYADSVKGRFTISRDNAKNTVYLQMNSLKPEDTAVFYCAARFLLTQRFSHDYWGQGTQVTVSS	low polyreactivity
QVQLVEKGGGLVQAGGSLRLSCAASGRTFRSNAMGWYRQAPGKERELVAAIRSRGGSTYYADSVKGRFTISRDNAKNTVYLQMNSLKPEDTAVYYCAAKHGSTSHDSWGQGTQVTVSS	high polyreactivity
QVQLVESVGGLVQAGGSLRLSCAASGTFSPYAMGWYRQAPGKERELVAVITSNTGRTYADSVKGRFTISRDNAKNSVYLQMNSLKPEDTAVYYCAARSTYRHWYRTGSRFDYWGQGTQVTVSS	low polyreactivity
QVQLVESGGGLVQAGGSLRLSCAASGFTFARYVMGWYRQAPGKERELVAAISWRGTRTFYADSVKGRFTISRDNAKNTVYLQMNSLKPEDTAVYYCAADSRPPKYDYWGQGTQVTVSS	high polyreactivity
QVQLVESGGGLVQAGGSLRLSCAASGRIFQYNVMGWYRQAPGKERELVAAISSGGNTYYADSVKGRFTISRDNAKNTVNLPMNSLKPEDTAVYYCAADHYVPWPNYDYDYWGQGTQVTVSS	low polyreactivity
QVQLVESGGGLVQAAGSLRVSCAASGSTFSWNPMGWSIQAPGKERELVAASTSGGRTYYADSVKGRFTISRDNAKNTVYLQMNSLKPADTAVYYCAAYATIYRDMGYWGHGTQVTVSS	high polyreactivity
QVQLVESGGGLVQAGGSLRLSCAASGFTFPDYAMGWYRQAPGKEREMVAAISSDGSTYYADSVKGRFTISRDNAKNTVYLQMNSLKPEDTAVYYCAAYVVWLYGYDYWGQGTLVTVSS	low polyreactivity
QVQLVESAGGLVQAGGSLRLSCAATGSTVDRNGMGWYRQAPGKERELVASISGRGGSTYYADSVKGRFTISRDHAKNTVYLQMNRLKPEDTAVYYCAVRYGFFSRYNSWGQGTQVTVSS	high polyreactivity
QVQLVESGGGLVQAGGSLRLSCAASGSIIQGYAMGWYRQAPGKERELVAVITTSGGSTYYADSVKGRFTISRDNAKNTVYLQMNSLKPEDTAVYYCAVGLLVYSRTYIGQAYFRYNYWGQGTQVTVSS	high polyreactivity
QVQLVESGGGLVQAGGSLRLSCAASGSIFFRYTMGWYRQAPGKERELVAAITGSGGSTYYADSVKGRFTISRDNAKNTVYLQMNSLKPEDTAVYYCARPGWGRYEYWGQGTQVTVSS	high polyreactivity
QVQLLESGGGLVQAGGSHRLSCAASGRIFGSNAMGWYRQAPGKERELVAAITRGGSTNYADSVKGRFTISLDNAKNTVYLQMNSLKPEDTAVYYCAVRWYRKYNYWGQGTQVTVSS	high polyreactivity
QVQLVESGGGLVQAGGSLRLSCAAAGFIFWSNAMGWYRQAPGKERELVAAIRNTGSTNYADSVKGRFTISRDNAKNTVYLQMNSLKPEDTAVYYCATKPYPYYLYYYWGQGTQVTVSS	high polyreactivity
QVQLVESGGGLVQAGGSLRLSCAASGSILRSYAMGWYRQAPGKERELVAVINGSGGRTYYADSVKGRFTISRDNAKNTVYLQMNSLKPEDTAVYYCAARRHTKRPGYDYWGQGTQVTVSS	low polyreactivity
QVQHVESGGGLVQAGGSLRLSCADSGSTLRGNAMGWYRQAPGKEREMVAAISIGSRTNYADSVKGRFTISRDNAKNTDYLQMNSLKPEDTAVYYCAKDISLRVRGPYYFGFDYWGQGTQVTVSS	low polyreactivity
QVQLVESGGGLVQEGGSLRLSCAASASIFRYNAMGWYRQAPGKERELVAAITSRDGSTYYADSVKGRFTISRDNAQNTVYFQMNSLKPEDTAVYYCAVQPDSGNYDSGIYDRVGMDYWGQGTQVTVSS	low polyreactivity
QVQLVESGGGLVQAGGSLRLSCAASGSILEIYAMGWYRPAPGKEREFVASISWDVSSTYYADSVKGRFTISRDNAKNTVYLQMNSLKPEDTAVYYCATSLVWGLYDWYYDLSAAFDYWGQGTQVTVSS	low polyreactivity
